From patent US20060026702A1, “Phosphoinositide 3-kinase mediated inhibition of GPCRs” (DUKE UNIVERSITY, priority 2002, published 2006)

Experiments:
phospho-PKB = test: PKB activation (phospho-PKB immunoblot) in HEK 293 cells; assay type: cell-based; details: IGF, carbachol or isoproterenol stimulation; HEAT transfected
β2AR complex = test: Recruitment of AP-2 adaptin and clathrin to the agonist-stimulated β2AR complex (immunoprecipitation, immunoblot); assay type: cell-based; details: HEAT co-transfected
Protocol: Immunoblotting and Detection—Immunoblotting and detection of PI3K, βARK1, HA-PI3Kγ, HA-ΔPI3Kγ, Myc-PI3Kα, FLAG-HEAT, PI3KΔHEAT-HA, FLAG-β2AR, HA-β2AR, β-adaptin and clathrin was carried out as previously described. Immunoprecipitating antibodies were added to 500 μg of cell lysate in lysis buffer followed by the addition of 35 μl of 1:1 Protein A- or G-agarose. Samples were rocked overnight at 4° C. then centrifuged at 12,000×g for 5 min. Immunoprecipitates were washed twice with lysis buffer, twice with 1×PBS and resuspended in 1×SDS-gel loading buffer. Proteins were resolved by SDS-polyacrylamide gel electrophoresis and blotted on to PVDF membrane (Bio-Rad). Blots were incubated with antibodies recognizing PI3K, Myc (Santa-Cruz), β-adaptin, clathrin heavy chain (BD Transduction Laboratories), HA (Roche Molecular Biochemicals) and FLAG (Sigma) at 1:2000 dilution and the βARK1 monoclonal antibody at 1:10,000 dilution. Blots were subsequently incubated with appropriate secondary antibody (1:2000 dilution) conjugated to horseradish peroxidase (Amersham Pharmacia Biotech) and detection was carried out using enhanced chemiluminescence. […]
The present inventors determined that βARK1-mediated localization of PI3K within the activated receptor complex is responsible for the generation of D-3 phosphatidylinositols necessary for the efficient recruitment of adaptin to the P2AR complex. […]

AT1AR-GFP = target: T1, AT1AR-GFP (Rattus norvegicus, UniProt P25095); test: Endocytosis of AT1AR-GFP in live cells by confocal microscopy; assay type: cell-based; details: Angiotensin II 10 μM, 20 min; HEAT co-expressed
T1 construct: expressed in transfected cells; host or cells: HEK 293
T1 sequence (P25095 1-359): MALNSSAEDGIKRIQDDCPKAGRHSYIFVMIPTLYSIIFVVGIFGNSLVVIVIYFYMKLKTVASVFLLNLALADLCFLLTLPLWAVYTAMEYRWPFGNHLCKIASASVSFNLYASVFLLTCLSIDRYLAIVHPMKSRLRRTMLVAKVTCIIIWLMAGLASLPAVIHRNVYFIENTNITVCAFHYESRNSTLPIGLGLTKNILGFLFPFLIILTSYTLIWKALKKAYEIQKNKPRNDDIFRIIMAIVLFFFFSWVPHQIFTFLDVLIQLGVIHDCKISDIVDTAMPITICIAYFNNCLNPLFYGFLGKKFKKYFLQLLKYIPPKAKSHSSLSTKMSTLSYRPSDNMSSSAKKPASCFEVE
Protocol: Disruption of the endogenous βARK1/PI3K interaction by the HEAT protein attenuated AT1AR endocytosis. Endocytosis of AT1AR-GFP in live cells was monitored for 20 min following angiotensin (10 μM) stimulation in the absence or presence of HEAT protein co-expression using confocal microscopy. HEK 293 cells were transfected with 2 μg Angiotensin II Type 1 Receptor, or with 2 pg Angiotensin II Type 1 Receptor and 2 μg HEAT, and stimulated for 20 minutes with 10 μM Angiotensin II. AT1AR internalization was followed in the same cell after agonist stimulation. Prior to agonist, the distribution of AT1AR-GFP was found distinctly at the plasma membrane (FIG. 15, 0 min). […] With time, this was followed by the formation of cytoplasmic aggregates, and then with the complete loss of membrane fluorescence (FIG. 15, 5-20 min). […] In FIG. 15, panels on the left represent cells transfected with the AT1AR-GFP alone (panels show the same cell monitored at 0, 5, 10, 15, and 20 min following stimulation). Panels on the right represent cell transfected with AT1AR-GFP and HEAT (panels show the same cell monitored as above). In the absence of HEAT, agonist caused the internalization AT1ARs as shown by the formation of distinct cytoplasmic aggregates and complete loss of membrane fluorescence.

PI3K = test: βAR associated and endogenous PI3K activity (lipid kinase assay) in HEK-293 cells; details: HEAT (4 μg cDNA) co-transfected; 10 μM isoproterenol
Protocol: Lipid Kinase Assays—Cells were lysed in lysis buffer and 2 mg cytosolic extract was used for immunoprecipitation with either the C5/1 monoclonal antibody directed against βARK1, the anti-FLAG M2 monoclonal antibody (Sigma) or antibodies to p110γ, or p110β (Santa Cruz Biotechnology) and protein G-agarose. Sedimented beads were then washed once with 1 ml of lysis buffer, thrice with 1 ml of phosphate-buffered saline (1× phosphate-buffered saline, 1% NP-40 and 100 μM sodium orthovanadate), thrice with 1 ml of Tris/LiCl (100 mM Tris-HCl (pH 7.4), 5 mM LiCl and 100 μM sodium orthovanadate) and twice with TNE (10 mM Tris Cl (pH 7.4), 150 mM NaCl, 5 mM EDTA and 100 μM sodium orthovanadate). […] Autoradiography of dried plates was used to detect signals, and PIP was quantified by phosphorimaging. […] Values are expressed as fold increase/decrease relative to wild-type/control.
They used HEK-293 cells transfected with either FLAG epitope tagged β1AR or β2AR plasmids and monitored the association of PI3K to the receptor after agonist stimulation. […] The FLAG epitope was immunoprecipitated from 500 ug of protein from the cytosolic extracts and PI3K activity measured.
HEK-293 cells were transfected with FLAG β1AR (upper panel) and FLAG β2AR (lower panel). […] Cell extracts were used to immunoprecipitate β1AR and β2AR using the anti-FLAG antibody and PI3K activity was measured in the immunoprecipitates.

B1: HEAT: 197 amino acid HEAT domain of PI3Kγ, FLAG epitope-tagged (SEQ ID NO: 2), overexpressed in cells (protein, listed as Homo sapiens)
chain: MDYKDDDDKHPIALPKHQPTPDDRVRAEMPNQLRKQLEAIIATDTAEDKELLWHFRYESLKHPKAYPKLFSSVKWGQQEIVAKTYQLLARREVWDQSALDVGLTMQLLDCNFSDENVRAIAVQKLESLEDDDVLHYLLQLVQAVKFEPYHDSALARFLLKRGLRNKRIGHFLFWFLRSEIAQSRHYQQRFAVILEAYLRGCGTA
modifications: FLAG tag
cellular signaling downstream of PI3K (PKB activation) (phospho-PKB): no effect
recruitment of adaptin to the agonist-stimulated β2AR complex (β2AR complex; 10 μM isoproterenol 0-10 min): completely abolished
clathrin co-immunoprecipitated with the receptor after agonist (β2AR complex): attenuated
receptor endocytosis (redistribution of AT1AR-GFP) (AT1AR-GFP): completely inhibited
FLAG-β2AR associated PI3K activity (PI3K): marked decrease
